Test results taken from PMC12095048.

Target: USP7 (UniProt Q93009)
Experiment: co-IP of Flag-HIF-1α, USP7 blot
Details: reference: wild type Flag-HIF-1α; sites T645

binding against the reference: weaker
Substance: HIF-1α (from UniProt Q16665) Flag-HIF-1α T645A
